Reference: IntAct's records for PubMed 17043237

B1: Pre-B-cell leukemia transcription factor-interacting protein 1 (Homo sapiens), Q96AQ6-1 (parent)
chain: MASCPDSDNSWVLAGSESLPVETLGPASRMDPESERALQAPHSPSKTDGKELAGTMDGEGTLFQTESPQSGSILTEETEVKGTLEGDVCGVEPPGPGDTVVQGDLQETTVVTGLGPDTQDLEGQSPPQSLPSTPKAAWIREEGRCSSSDDDTDVDMEGLRRRRGREAGPPQPMVPLAVENQAGGEGAGGELGISLNMCLLGALVLLGLGVLLFSGGLSESETGPMEEVERQVLPDPEVLEAVGDRQDGLREQLQAPVPPDSVPSLQNMGLLLDKLAKENQDIRLLQAQLQAQKEELQSLMHQPKGLEEENAQLRGALQQGEAFQRALESELQQLRARLQGLEADCVRGPDGVCLSGGRGPQGDKAIREQGPREQEPELSFLKQKEQLEAEAQALRQELERQRRLLGSVQQDLERSLQDASRGDPAHAGLAELGHRLAQKLQGLENWGQDPGVSANASKAWHQKSHFQNSREWSGKEKWWDGQRDRKAEHWKHKKEESGRERKKNWGGQEDREPAGRWKEGRPRVEESGSKKEGKRQGPKEPPRKSGSFHSSGEKQKQPRWREGTKDSHDPLPSWAELLRPKYRAPQGCSGVDECARQEGLTFFGTELAPVRQQELASLLRTYLARLPWAGQLTKELPLSPAFFGEDGIFRHDRLRFRDFVDALEDSLEEVAVQQTGDDDEVDDFEDFIFSHFFGDKALKKRSGKKDKHSQSPRAAGPREGHSHSHHHHHRG

Variants of: B1
Conditions: with esr1_human ESR1, P03372
Chain of esr1_human ESR1, P03372 (P03372 whole entry): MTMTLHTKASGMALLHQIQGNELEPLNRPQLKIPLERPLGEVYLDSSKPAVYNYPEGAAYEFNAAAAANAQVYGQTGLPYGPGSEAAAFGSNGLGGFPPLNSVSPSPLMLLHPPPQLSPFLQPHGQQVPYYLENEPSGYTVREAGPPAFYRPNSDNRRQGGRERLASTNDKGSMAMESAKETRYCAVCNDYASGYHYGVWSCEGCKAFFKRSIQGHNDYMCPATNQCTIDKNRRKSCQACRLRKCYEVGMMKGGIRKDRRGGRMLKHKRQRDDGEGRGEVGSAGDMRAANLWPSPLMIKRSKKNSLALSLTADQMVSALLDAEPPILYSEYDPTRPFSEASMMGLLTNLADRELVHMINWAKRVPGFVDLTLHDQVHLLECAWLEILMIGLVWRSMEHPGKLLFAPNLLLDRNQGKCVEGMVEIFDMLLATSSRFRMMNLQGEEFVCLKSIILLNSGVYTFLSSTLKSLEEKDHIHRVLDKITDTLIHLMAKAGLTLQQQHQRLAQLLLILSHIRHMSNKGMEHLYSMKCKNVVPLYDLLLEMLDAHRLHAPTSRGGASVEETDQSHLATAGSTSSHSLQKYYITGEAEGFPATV

| effect of a mutation on the interaction | Variant |
| --- | --- |
| disrupting interaction strength | L615A;L618A;L619A |
